# Test results published in patent US20090149339A1 (published 2009).
# Ends that are not written are not given here. * marks the point of attachment. Biotin = O=C1N[C@H]2[C@H](CS[C@H]2CCCCC(=O)*)N1
# Target: T1, GST-TAX33 PDZ domain fusion protein (tax interaction protein 33 AA73-162; PDZ domain 1 of 1) (UniProt P08515 1-218 = GST)
# T1 construct: also called TX33
# Experiment: A/G assays
# T1 sequence (P08515 1-218, tags or fused parts left off): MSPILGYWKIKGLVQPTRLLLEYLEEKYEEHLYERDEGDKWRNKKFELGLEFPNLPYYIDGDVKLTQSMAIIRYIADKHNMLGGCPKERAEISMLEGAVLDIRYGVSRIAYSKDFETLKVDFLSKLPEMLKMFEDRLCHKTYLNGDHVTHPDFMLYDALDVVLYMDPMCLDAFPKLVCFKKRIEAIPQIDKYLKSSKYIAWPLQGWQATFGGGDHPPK
row,Binder,binding result
1,"Biotin-DTPSSSYTQSTMDHDLHDAL [CC CKR-4 C-terminal PL peptide AA44L, biotinylated]",no binding
2,"Biotin-SSSQSLESDGSYQKPSYIL [CD62E C-terminal PL peptide AA48L, biotinylated]",no binding

# Target: GST-AF6 PDZ domain fusion protein (af-6 protein AA985-1077; PDZ domain 1 of 1) (UniProt P08515 1-218 = GST)
# Experiment: A/G assays
# Sequence of GST-AF6 PDZ domain fusion protein (af-6 protein AA985-1077; PDZ domain 1 of 1) (P08515 1-218, tags or fused parts left off): as the sequence (P08515 1-218, tags or fused parts left off) above
row,Binder,binding result
1,"Biotin-DTPSSSYTQSTMDHDLHDAL [CC CKR-4 C-terminal PL peptide AA44L, biotinylated]",no binding
2,"Biotin-SSSQSLESDGSYQKPSYIL [CD62E C-terminal PL peptide AA48L, biotinylated]",no binding

# Target: GST-DVL1 PDZ domain fusion protein (human dishevelled segment polarity protein homolog AA248-340); PDZ domain … (human, UniProt P08515 1-218 = GST)
# Experiment: A/G assays
# Sequence of GST-DVL1 PDZ domain fusion protein (human dishevelled segment polarity protein homolog AA248-340); PDZ domain … (P08515 1-218, tags or fused parts left off): as the sequence (P08515 1-218, tags or fused parts left off) above
row,Binder,binding result
1,"Biotin-DTPSSSYTQSTMDHDLHDAL [CC CKR-4 C-terminal PL peptide AA44L, biotinylated]",no binding
2,"Biotin-SSSQSLESDGSYQKPSYIL [CD62E C-terminal PL peptide AA48L, biotinylated]",no binding

# Target: GST-LIMK2 PDZ domain fusion protein (human LIM domain kinase 2 AA185-275; PDZ domain 1 of 1) (human, UniProt P08515 1-218 = GST)
# Experiment: A/G assays
# Sequence of GST-LIMK2 PDZ domain fusion protein (human LIM domain kinase 2 AA185-275; PDZ domain 1 of 1) (P08515 1-218, tags or fused parts left off): as the sequence (P08515 1-218, tags or fused parts left off) above
row,Binder,binding result
1,"Biotin-DTPSSSYTQSTMDHDLHDAL [CC CKR-4 C-terminal PL peptide AA44L, biotinylated]",no binding
2,"Biotin-SSSQSLESDGSYQKPSYIL [CD62E C-terminal PL peptide AA48L, biotinylated]",no binding

# Target: GST-MPP1 PDZ domain fusion protein (55 Kd erythrocyte membrane protein AA101-186; PDZ domain 1 of 1) (UniProt P08515 1-218 = GST)
# Experiment: A/G assays
# Sequence of GST-MPP1 PDZ domain fusion protein (55 Kd erythrocyte membrane protein AA101-186; PDZ domain 1 of 1) (P08515 1-218, tags or fused parts left off): as the sequence (P08515 1-218, tags or fused parts left off) above
row,Binder,binding result
1,"Biotin-DTPSSSYTQSTMDHDLHDAL [CC CKR-4 C-terminal PL peptide AA44L, biotinylated]",no binding
2,"Biotin-SSSQSLESDGSYQKPSYIL [CD62E C-terminal PL peptide AA48L, biotinylated]",no binding

# Target: T2, GST-TAX2 PDZ domain fusion protein (human tax interaction protein 2 AA54-140; PDZ domain 1 of 1) (human, UniProt P08515 1-218 = GST)
# T2 construct: also called TX 2
# Experiment: A/G assays
# T2 sequence (P08515 1-218, tags or fused parts left off): as the sequence (P08515 1-218, tags or fused parts left off) above
row,Binder,binding result
1,"Biotin-DTPSSSYTQSTMDHDLHDAL [CC CKR-4 C-terminal PL peptide AA44L, biotinylated]",no binding
2,"Biotin-SSSQSLESDGSYQKPSYIL [CD62E C-terminal PL peptide AA48L, biotinylated]",no binding

# Target: GST-MINT3 PDZ domain fusion protein (human MINT3 AA11-52; PDZ domain 1 of 1) (human, UniProt P08515 1-218 = GST)
# Experiment: A/G assays
# Sequence of GST-MINT3 PDZ domain fusion protein (human MINT3 AA11-52; PDZ domain 1 of 1) (P08515 1-218, tags or fused parts left off): as the sequence (P08515 1-218, tags or fused parts left off) above
row,Binder,binding result
1,"Biotin-DTPSSSYTQSTMDHDLHDAL [CC CKR-4 C-terminal PL peptide AA44L, biotinylated]",no binding
2,"Biotin-SSSQSLESDGSYQKPSYIL [CD62E C-terminal PL peptide AA48L, biotinylated]",no binding

# Target: T3, GST-41.8 kD PDZ domain fusion protein (hypothetical 41.8 kD protein AA4-85; PDZ domain 1 of 1) (UniProt P08515 1-218 = GST)
# T3 construct: also called hypoth
# Experiment: A/G assays
# T3 sequence (P08515 1-218, tags or fused parts left off): as the sequence (P08515 1-218, tags or fused parts left off) above
row,Binder,binding result
1,"Biotin-DTPSSSYTQSTMDHDLHDAL [CC CKR-4 C-terminal PL peptide AA44L, biotinylated]",no binding
2,"Biotin-SSSQSLESDGSYQKPSYIL [CD62E C-terminal PL peptide AA48L, biotinylated]",no binding

# Target: T4, GST-CASK PDZ domain fusion protein (CASK AA495-584; PDZ domain 1 of 1) (mouse, UniProt P08515 1-218 = GST)
# T4 construct: also called mCASK
# Experiment: A/G assays
# T4 sequence (P08515 1-218, tags or fused parts left off): as the sequence (P08515 1-218, tags or fused parts left off) above
row,Binder,binding result
1,"Biotin-DTPSSSYTQSTMDHDLHDAL [CC CKR-4 C-terminal PL peptide AA44L, biotinylated]",no binding
2,"Biotin-SSSQSLESDGSYQKPSYIL [CD62E C-terminal PL peptide AA48L, biotinylated]",no binding

# Target: T5, GST-KIAA0316 PDZ domain fusion protein (KIAA0316 AA197-284; PDZ domain 1 of 1) (UniProt P08515 1-218 = GST)
# T5 construct: also called K316
# Experiment: A/G assays
# T5 sequence (P08515 1-218, tags or fused parts left off): as the sequence (P08515 1-218, tags or fused parts left off) above
row,Binder,binding result
1,"Biotin-DTPSSSYTQSTMDHDLHDAL [CC CKR-4 C-terminal PL peptide AA44L, biotinylated]",no binding
2,"Biotin-SSSQSLESDGSYQKPSYIL [CD62E C-terminal PL peptide AA48L, biotinylated]",no binding

# Target: GST-NOS1 PDZ domain fusion protein (human neuronal nitric oxide synthase; PDZ domain 1 of 1) (human, UniProt P08515 1-218 = GST)
# Experiment: A/G assays
# Sequence of GST-NOS1 PDZ domain fusion protein (human neuronal nitric oxide synthase; PDZ domain 1 of 1) (P08515 1-218, tags or fused parts left off): as the sequence (P08515 1-218, tags or fused parts left off) above
row,Binder,binding result
1,"Biotin-DTPSSSYTQSTMDHDLHDAL [CC CKR-4 C-terminal PL peptide AA44L, biotinylated]",no binding
2,"Biotin-SSSQSLESDGSYQKPSYIL [CD62E C-terminal PL peptide AA48L, biotinylated]",no binding

# Target: GST-LIM PDZ domain fusion protein (Human LIM protein AA29-112; PDZ domain 1 of 1) (human, UniProt P08515 1-218 = GST)
# Experiment: A/G assays
# Sequence of GST-LIM PDZ domain fusion protein (Human LIM protein AA29-112; PDZ domain 1 of 1) (P08515 1-218, tags or fused parts left off): as the sequence (P08515 1-218, tags or fused parts left off) above
row,Binder,binding result
1,"Biotin-DTPSSSYTQSTMDHDLHDAL [CC CKR-4 C-terminal PL peptide AA44L, biotinylated]",no binding
2,"Biotin-SSSQSLESDGSYQKPSYIL [CD62E C-terminal PL peptide AA48L, biotinylated]",no binding

# Target: T6, GST-RGS12 PDZ domain fusion protein (human regulator of G-protein signalling 12 AA35-103; PDZ domain 1 of 1) (human, UniProt P08515 1-218 = GST)
# T6 construct: also called RSG12
# Experiment: A/G assays
row,Binder,binding result
1,"Biotin-DTPSSSYTQSTMDHDLHDAL [CC CKR-4 C-terminal PL peptide AA44L, biotinylated]",no binding
2,"Biotin-SSSQSLESDGSYQKPSYIL [CD62E C-terminal PL peptide AA48L, biotinylated]",no binding

# Target: T7, GST-SYN1a PDZ domain fusion protein (alpha1-syntrophin AA96-189; PDZ domain 1 of 1) (UniProt P08515 1-218 = GST)
# T7 construct: also called SYN 1 alpha; SYNTR 1 alpha
# Experiment: A/G assays
# T7 sequence (P08515 1-218, tags or fused parts left off): as the sequence (P08515 1-218, tags or fused parts left off) above
row,Binder,binding result
1,"Biotin-DTPSSSYTQSTMDHDLHDAL [CC CKR-4 C-terminal PL peptide AA44L, biotinylated]",no binding
2,"Biotin-SSSQSLESDGSYQKPSYIL [CD62E C-terminal PL peptide AA48L, biotinylated]",no binding

# Target: GST-TIAM1 PDZ domain fusion protein (T-lymphoma invasion and metastasis inducing protein 1 AA1001-1088); PDZ 1 … (UniProt P08515 1-218 = GST)
# Experiment: A/G assays
# Sequence of GST-TIAM1 PDZ domain fusion protein (T-lymphoma invasion and metastasis inducing protein 1 AA1001-1088); PDZ 1 … (P08515 1-218, tags or fused parts left off): as the sequence (P08515 1-218, tags or fused parts left off) above
row,Binder,binding result
1,"Biotin-DTPSSSYTQSTMDHDLHDAL [CC CKR-4 C-terminal PL peptide AA44L, biotinylated]",no binding
2,"Biotin-SSSQSLESDGSYQKPSYIL [CD62E C-terminal PL peptide AA48L, biotinylated]",no binding

# Target: T8, GST-KIAA0303 PDZ domain fusion protein (KIAA0303 AA652-742; PDZ domain 1 of 1) (UniProt P08515 1-218 = GST)
# T8 construct: also called K303
# Experiment: A/G assays
# T8 sequence (P08515 1-218, tags or fused parts left off): as the sequence (P08515 1-218, tags or fused parts left off) above
row,Binder,binding result
1,"Biotin-DTPSSSYTQSTMDHDLHDAL [CC CKR-4 C-terminal PL peptide AA44L, biotinylated]",no binding
2,"Biotin-SSSQSLESDGSYQKPSYIL [CD62E C-terminal PL peptide AA48L, biotinylated]",no binding

# Target: T9, GST-MPP2 PDZ domain fusion protein (maguk p55 subfamily member 2 (DLG2) AA185-273; PDZ domain 1 of 1) (UniProt P08515 1-218 = GST)
# T9 construct: also called MMP2
# Experiment: A/G assays
# T9 sequence (P08515 1-218, tags or fused parts left off): as the sequence (P08515 1-218, tags or fused parts left off) above
row,Binder,binding result
1,"Biotin-DTPSSSYTQSTMDHDLHDAL [CC CKR-4 C-terminal PL peptide AA44L, biotinylated]",no binding
2,"Biotin-SSSQSLESDGSYQKPSYIL [CD62E C-terminal PL peptide AA48L, biotinylated]",no binding

# Target: T10, GST-TAX40 PDZ domain fusion protein (human tax interaction protein 40 AA35-137; PDZ domain 1 of 1) (human, UniProt P08515 1-218 = GST)
# T10 construct: also called TX 40
# Experiment: A/G assays
row,Binder,binding result
1,"Biotin-DTPSSSYTQSTMDHDLHDAL [CC CKR-4 C-terminal PL peptide AA44L, biotinylated]",no binding
2,"Biotin-SSSQSLESDGSYQKPSYIL [CD62E C-terminal PL peptide AA48L, biotinylated]",no binding

# Target: T11, GST-TAX43 PDZ domain fusion protein (human tax interaction protein 43 AA15-85; PDZ domain 1 of 1) (human, UniProt P08515 1-218 = GST)
# T11 construct: also called TX 43
# Experiment: A/G assays
# T11 sequence (P08515 1-218, tags or fused parts left off): as the sequence (P08515 1-218, tags or fused parts left off) above
row,Binder,binding result
1,"Biotin-DTPSSSYTQSTMDHDLHDAL [CC CKR-4 C-terminal PL peptide AA44L, biotinylated]",no binding
2,"Biotin-SSSQSLESDGSYQKPSYIL [CD62E C-terminal PL peptide AA48L, biotinylated]",no binding

# Target: T12, GST-CBP PDZ domain fusion protein (Cytohesin binding protein HE AA85-175; PDZ domain 1 of 1) (UniProt P08515 1-218 = GST)
# T12 construct: also called Prot
# Experiment: A/G assays
# T12 sequence (P08515 1-218, tags or fused parts left off): as the sequence (P08515 1-218, tags or fused parts left off) above
row,Binder,binding result
1,"Biotin-DTPSSSYTQSTMDHDLHDAL [CC CKR-4 C-terminal PL peptide AA44L, biotinylated]",no binding
2,"Biotin-SSSQSLESDGSYQKPSYIL [CD62E C-terminal PL peptide AA48L, biotinylated]",no binding

# Target: GST-PSD95 PDZ domain fusion protein (human post-synaptic density protein 95 AA387-724; PDZ domains 1-3 of 3) (human, UniProt P08515 1-218 = GST)
# Experiment: A/G assays
# Sequence of GST-PSD95 PDZ domain fusion protein (human post-synaptic density protein 95 AA387-724; PDZ domains 1-3 of 3) (P08515 1-218, tags or fused parts left off): as the sequence (P08515 1-218, tags or fused parts left off) above
row,Binder,binding result
1,"Biotin-DTPSSSYTQSTMDHDLHDAL [CC CKR-4 C-terminal PL peptide AA44L, biotinylated]",no binding
2,"Biotin-SSSQSLESDGSYQKPSYIL [CD62E C-terminal PL peptide AA48L, biotinylated]",no binding

# Target: T13, GST-NeDLG PDZ domain fusion protein (presynaptic protein sao102, neuroendocrine-dlg; PDZ domains 1-2 of 3) (UniProt P08515 1-218 = GST)
# T13 construct: also called NeDLG1
# Experiment: A/G assays
# T13 sequence (P08515 1-218, tags or fused parts left off): as the sequence (P08515 1-218, tags or fused parts left off) above
row,Binder,binding result
1,"Biotin-DTPSSSYTQSTMDHDLHDAL [CC CKR-4 C-terminal PL peptide AA44L, biotinylated]",no binding
2,"Biotin-SSSQSLESDGSYQKPSYIL [CD62E C-terminal PL peptide AA48L, biotinylated]",no binding

# Target: T14, GST-KIAA0559 PDZ domain fusion protein (KIAA0559 AA766-870; PDZ1 of 1) (UniProt P08515 1-218 = GST)
# T14 construct: also called K559
# Experiment: A/G assays
row,Binder,binding result
1,"Biotin-DTPSSSYTQSTMDHDLHDAL [CC CKR-4 C-terminal PL peptide AA44L, biotinylated]",no binding
2,"Biotin-SSSQSLESDGSYQKPSYIL [CD62E C-terminal PL peptide AA48L, biotinylated]",no binding

# Target: GST-PTN-4 PDZ domain fusion protein (protein-tyrosine phosphatase meg1 AA774-862; PDZ domain 1 of 1) (UniProt P08515 1-218 = GST)
# Experiment: A/G assays
row,Binder,binding result
1,"Biotin-DTPSSSYTQSTMDHDLHDAL [CC CKR-4 C-terminal PL peptide AA44L, biotinylated]",no binding
2,"Biotin-SSSQSLESDGSYQKPSYIL [CD62E C-terminal PL peptide AA48L, biotinylated]",no binding

# Target: GST-prIL16 PDZ domain fusion protein (putative interleukin 16 precursor AA170-383; PDZ domains 1-2 of 2) (UniProt P08515 1-218 = GST)
# Experiment: A/G assays
# Sequence of GST-prIL16 PDZ domain fusion protein (putative interleukin 16 precursor AA170-383; PDZ domains 1-2 of 2) (P08515 1-218, tags or fused parts left off): as the sequence (P08515 1-218, tags or fused parts left off) above
row,Binder,binding result
1,"Biotin-DTPSSSYTQSTMDHDLHDAL [CC CKR-4 C-terminal PL peptide AA44L, biotinylated]",no binding
2,"Biotin-SSSQSLESDGSYQKPSYIL [CD62E C-terminal PL peptide AA48L, biotinylated]",no binding
